Positions count from the first letter of the chain named. Names may count otherwise.
B1: β-glucosidase B (BglB) (Paenibacillus polymyxa; N160L) (protein)
chain: MSENTFIFPATFMWGTSTSSYQIEGGTDEGGRTPSIWDTFCQIPGKVIGGDCGDVACDHFHHFKEDVQLMKQLGFLHYRFSVAWPRIMPAAGIINEEGLLFYEHLLDEIELAGLIPMLTLYHWDLPQWIEDEGGWTQRETIQHFKTYASVIMDRFGERILWWNTINEPYCASILGYGTGEHAPGHENWREAFTAAHHILMCHGIASNLHKEKGLTGKIGITLNMEHVDAASERPEDVAAAIRRDGFINRWFAEPLFNGKYPEDMVEWYGTYLNGLDFVQPGDMELIQQPGDFLGINYYTRSIIRSTNDASLLQVEQVHMEEPVTDMGWEIHPESFYKLLTRIEKDFSKGLPILITENGAAMRDELVNGQIEDTGRHGYIEEHLKACHRFIEEGGQLKGYFVWSFLDNFEWAWGYSKRFGIVHINYETQERTPKQSALWFKQMMAKNGF
B2: β-glucosidase B (BglB) (Paenibacillus polymyxa; N160S) (protein)
chain: B1 chain with L160S
B3: β-glucosidase B (BglB) (Paenibacillus polymyxa; N160G) (protein)
chain: B1 chain with L160G
B4: β-glucosidase B (BglB) (Paenibacillus polymyxa; N160M) (protein)
chain: B1 chain with L160M
B5: β-glucosidase B (BglB) (Paenibacillus polymyxa; N160C) (protein)
chain: B1 chain with L160C

Substrate: O=[N+]([O-])c1ccc(O[C@@H]2O[C@H](CO)[C@@H](O)[C@H](O)[C@H]2O)cc1
Test: purified protein
Settings: 0-100 mM substrate, 15 min

| Protein | Km [mM] | kcat [s⁻¹] |
| --- | --- | --- |
| B1 | 13.8 ± 1.6 | 3.245 ± 0.127 |
| B2 | 4.9 ± 0.2 | 4.527 ± 0.05 |
| B3 | 3.5 ± 0.2 | 9.81 ± 0.137 |
| B4 | 14.1 ± 1.3 | 4.162 ± 0.122 |
| B5 | 4.3 ± 0.3 | 9.147 ± 0.157 |
